In patent US20240238448 one finds activity (fold activation) data, which are given here for one substance.

This data set concerns the target ZFHD1-FKBP (ZF-FKBP fusion) (synthetic construct) (UniProt P08046+P14859). The data set is described as follows: cell_activity. Particulars: GFP reporter in 293-ZF-FKBP cells with CEM87 recruiting BRD4; dose-dependent; indirect evidence of binding; no response in WT 293 cells.

Sequence of ZFHD1-FKBP (ZF-FKBP fusion) (synthetic construct) (P08046 333-390, chain 1 of 2): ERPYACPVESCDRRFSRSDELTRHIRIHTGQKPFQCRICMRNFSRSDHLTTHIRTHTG
Sequence of ZFHD1-FKBP (ZF-FKBP fusion) (synthetic construct) (P14859 378-439, chain 2 of 2): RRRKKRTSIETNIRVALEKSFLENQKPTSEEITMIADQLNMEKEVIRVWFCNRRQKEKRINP

Turning to “ZF binding domain recognition sequence (ZFHD1 cognate site) upstream of JET promoter in AAV2-BD-JET-GFP”, the activity (fold activation) was over 10.
